This test addresses Ca2+. In words: in situ Ca2+ titration of FRET with mNGΔN5-SOAR1L. Particulars: 25 µM digitonin, 10 µM ionomycin, EGTA.

For STIM1 1-310-CFPΔC11 C49A; C56A, the Kd (as a rule, the concentration at which binding is half-saturated) stood at 740 µM (cells transfected with CasRx-P4HB (P4HB knockdown), Hill n 2.8±0.09); 750 µM (cells transfected with CasRx-PDIA3 (PDIA3 knockdown), Hill n 2.8±0.12); 760 µM (cells transfected with control CasRx, Hill n 2.7±0.12).
